Laboratory results: patent US20230329245A1, “COMPOSITIONS AND METHODS OF USE THEREOF” (Curie Co. Inc., priority 2020, published 2023)

Test system: Yeast or bacterial starter cultures
Experiment: Tgase biocidal activity on yeast or bacterial cultures (Example 2)
Type: cell-based
Details: where biocidal activity could be observed with both enzymes
Procedure: A variant form of Streptomyces mobaraensis transglutaminase having the amino acid sequence depicted in SEQ ID NO:6 was prepared by literature methods (Javitt, et al. (2017) BMC Biotechnol. 17:23) as previously described. Tgase activity was measured using the colorimetric hydroxamate activity assay (Folk and Cole (1965) J Biol Chemistry 240(7):2951-2960). Tgase cytotoxic activity was assessed either using OD600 or a commercially available kit (BacTiter-Glo™, Promega®, following manufacturer's protocol).
Yeast or bacterial starter cultures were grown as described previously. Tgase (SEQ ID NO:6) was added to each culture at 0.001-1 weight percent. The cultures were grown overnight at 30° C.-37° C. and growth curves were measured by a BioTek® Synergy Plate Reader.

B1: Tgase (SEQ ID NO: 6): variant Streptomyces mobaraensis transglutaminase (SEQ ID NO:2) with N-terminal Methionine, C-terminal peptide linker and hexa-His-Tag (protein)
chain: MDPDDRVTPPAEPLDRMPDPYRPSYGRAETVVNNYIRKWQQVYSHRDGRKQQMTEEQREWLSYGCVGVTWVNSGQYPTNRLAFASFDEDRFKNELKNGRPRSGETRAEFEGRVAKESFDEEKGFQRAREVASVMNRALENAHDESAYLDNLKKELANGNDALRNEDARSPFYSALRNTPSFKERNGGNHDPSRMKAVIYSKHFWSGQDRSSSADKRKYGDPDAFRPAPGTGLVDMSRDRNIPRSPTSPGEGFVNFDYGWFGAQTEADADKTVWTHGNHYHAPNGSLGAMHVYESKFRNWSEGYSDFDRGAYVITFIPKSWNTAPDKVKQGWPLEHHHHHH
- potency relative to Tgase SEQ ID NO:1: 10 fold
